Test [1] concerns the target T1, Human VEGF165R/NP-1 (neuropilin-1) (human, UniProt O14786 22-923). Put plainly: cell-based or functional assay.
The target in test [2] is T1, Human VEGF165R/NP-1 (neuropilin-1). Put plainly: Scatchard analysis (LIGAND program) of 125I-VEGF165 binding to PAE/NP-1 cells.
Protocol: FIGS. 7A and 7B show a Scatchard Analysis of VEGF₁₆₅ binding to VEGF₁₆₅R/NP-1. […] Increasing amounts of ¹²⁵I-VEGF₁₆₅ (0.1-50 ng ml) were added to subconfluent cultures of PAE cells transfected with human VEGF₁₆₅R/NP-1 cDNA (PAE/NP-1 cells) in 48 well dishes. Non-specific binding was determined by competition with a 200-fold excess of unlabeled VEGF₁₆₅. After binding, the cells were washed, lysed and the cell-associated radioactivity was determined using a counter.
The specific activity ranged from 40,000-100,000 cpm/ng protein. […] VEGF binding was quantitated by measuring the cell-associated radioactivity in a y-counter (Beckman, Gamma 5500). The counts represent the average of three wells. All experiments were repeated at least three times and similar results where obtained.
Test [3] has as its target T2, Human NP-2 (neuropilin-2) (human, UniProt O60462 21-931).
T2 construct: The open reading frame has 931 amino acids
T2 sequence: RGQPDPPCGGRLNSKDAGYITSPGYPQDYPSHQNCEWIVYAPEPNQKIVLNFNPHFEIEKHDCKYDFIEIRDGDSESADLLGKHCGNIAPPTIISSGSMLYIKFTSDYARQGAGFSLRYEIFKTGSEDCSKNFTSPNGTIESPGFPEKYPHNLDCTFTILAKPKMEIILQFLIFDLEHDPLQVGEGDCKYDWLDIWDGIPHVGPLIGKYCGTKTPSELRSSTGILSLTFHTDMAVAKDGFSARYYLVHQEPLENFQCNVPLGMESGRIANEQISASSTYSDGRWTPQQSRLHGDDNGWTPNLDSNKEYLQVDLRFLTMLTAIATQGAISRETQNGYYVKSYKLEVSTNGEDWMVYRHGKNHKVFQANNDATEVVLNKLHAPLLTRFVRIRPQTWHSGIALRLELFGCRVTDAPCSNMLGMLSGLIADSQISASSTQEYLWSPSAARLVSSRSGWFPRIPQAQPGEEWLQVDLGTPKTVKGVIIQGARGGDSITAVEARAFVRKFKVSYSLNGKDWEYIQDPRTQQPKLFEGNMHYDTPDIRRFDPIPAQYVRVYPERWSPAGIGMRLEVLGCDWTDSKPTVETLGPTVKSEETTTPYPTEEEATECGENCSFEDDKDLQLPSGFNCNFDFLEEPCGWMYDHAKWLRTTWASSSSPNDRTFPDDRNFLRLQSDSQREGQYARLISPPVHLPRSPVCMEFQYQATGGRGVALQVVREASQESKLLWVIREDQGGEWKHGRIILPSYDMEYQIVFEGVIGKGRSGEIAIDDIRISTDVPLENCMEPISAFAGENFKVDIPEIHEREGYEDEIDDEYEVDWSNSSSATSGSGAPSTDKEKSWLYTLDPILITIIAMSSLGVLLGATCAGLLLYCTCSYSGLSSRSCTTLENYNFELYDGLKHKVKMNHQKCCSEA
Put plainly: expression cloning: COS-7 cells transfected with single cDNA clones, screened for 125I-VEGF165 binding; seven positive clones, of which this one is NP-2.
Protocol: Seven positive DNA pools were identified and DNA from one of the positive pools was used to transform E. coli. The E. coli were sub-divided into 50 separate pools and plated onto 50 LB ampicillin dishes, with each pool representing approximately 100 clones. DNA made from these pools was transfected into COS-7 cells which were screened for ¹²⁵I-VEGF₁₆₅ binding as described above. […] Each pool was plated onto separate LB ampicillin dishes and DNA was prepared from 96 individual colonies and screened in a 96-well two dimensional grid for ¹²⁵I-VEGF₁₆₅ binding to transfected COS-7 cells as described above. […] The seven positive plasmid clones where amplified and their DNA was analyzed by restriction enzyme digestion. […] One clone from each group was submitted for automated DNA sequencing.
E. coli transformed with the plasmid library were divided into pools. The DNA prepared from each pool were transfected into COS-7 cells in separate wells and individual cells were screened for the ability to bind ¹²⁵I-VEGF₁₆₅ as detected by autoradiography of monolayers overlayed with photographic emulsion (FIG. 2A).

The target in test [4] is T3, Rat neuropilin-1 on AT3.1 Dunning rat prostate carcinoma cells (rat, UniProt Q9QWJ9 22-922).
T3 construct: whole, on cells; also called VEGF165R/NP-1 (AT3.1 cells)
Put plainly: 125I-VEGF165 cross-linking to AT3.1 rat prostate carcinoma cells.

In test [5] the target is T1, Human VEGF165R/NP-1 (neuropilin-1). Put plainly: 125I-VEGF121 binding and chemical cross-linking to PAE/NP-1 cells, SDS-PAGE and autoradiography, 1 µg/ml heparin. The text has this: The cells were lysed and proteins were resolved by 6% SDS-PAGE.
A further test has as its target T4, KDR (UniProt P35968 20-1356, limits assumed).
T4 construct: whole, on cells; also called KDR/Flk-1
Put plainly: 125I-collapsin-1 binding to PAE/KDR cells.

T4 sequence (P35968 20-1356 limits assumed): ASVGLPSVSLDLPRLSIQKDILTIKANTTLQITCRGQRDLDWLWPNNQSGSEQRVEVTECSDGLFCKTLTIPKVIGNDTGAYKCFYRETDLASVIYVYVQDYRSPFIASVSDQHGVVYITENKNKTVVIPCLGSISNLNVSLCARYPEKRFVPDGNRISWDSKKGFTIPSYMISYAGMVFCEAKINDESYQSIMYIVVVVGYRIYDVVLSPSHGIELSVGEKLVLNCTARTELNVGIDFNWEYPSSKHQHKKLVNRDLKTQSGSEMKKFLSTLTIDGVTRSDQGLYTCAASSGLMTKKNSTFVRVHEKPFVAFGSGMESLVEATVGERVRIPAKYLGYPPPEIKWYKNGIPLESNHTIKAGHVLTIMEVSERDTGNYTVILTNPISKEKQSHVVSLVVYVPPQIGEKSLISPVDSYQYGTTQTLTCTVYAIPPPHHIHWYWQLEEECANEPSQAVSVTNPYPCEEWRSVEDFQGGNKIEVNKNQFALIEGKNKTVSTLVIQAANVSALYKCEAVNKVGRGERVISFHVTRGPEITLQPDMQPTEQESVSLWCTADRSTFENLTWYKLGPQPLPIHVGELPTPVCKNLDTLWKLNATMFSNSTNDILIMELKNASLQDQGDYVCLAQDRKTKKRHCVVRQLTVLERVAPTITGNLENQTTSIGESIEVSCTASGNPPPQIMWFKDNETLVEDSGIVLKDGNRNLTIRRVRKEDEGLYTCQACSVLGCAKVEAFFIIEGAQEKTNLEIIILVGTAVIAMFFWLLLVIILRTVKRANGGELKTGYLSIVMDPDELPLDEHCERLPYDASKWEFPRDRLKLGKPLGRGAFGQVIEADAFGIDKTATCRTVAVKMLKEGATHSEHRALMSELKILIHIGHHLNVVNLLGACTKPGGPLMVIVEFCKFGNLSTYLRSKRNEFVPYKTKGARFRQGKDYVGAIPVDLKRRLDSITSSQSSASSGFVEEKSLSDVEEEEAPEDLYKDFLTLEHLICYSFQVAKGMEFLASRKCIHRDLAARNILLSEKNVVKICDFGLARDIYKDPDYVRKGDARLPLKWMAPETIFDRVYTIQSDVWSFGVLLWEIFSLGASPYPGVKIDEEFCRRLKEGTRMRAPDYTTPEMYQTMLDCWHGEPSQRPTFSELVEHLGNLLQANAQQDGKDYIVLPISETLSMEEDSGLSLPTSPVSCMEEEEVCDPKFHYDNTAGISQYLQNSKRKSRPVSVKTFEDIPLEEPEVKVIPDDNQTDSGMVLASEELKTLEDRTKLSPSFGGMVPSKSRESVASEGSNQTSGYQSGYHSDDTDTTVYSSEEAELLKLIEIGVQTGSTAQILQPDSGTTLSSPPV

B1: Human recombinant VEGF165 (ligand, UniProt P15692-4 27-191, looked up)
chain: APMAEGGGQNHHEVVKFMDVYQRSYCHPIETLVDIFQEYPDEIEYIFKPSCVPLMRCGGCCNDEGLECVPTEESNITMQIMRIKPHQGQHIGEMSFLQHNKCECRPKKDRARQENPCGPCSERRKHLFVQDPQTCKCSCKNTDSRCKARQLELNERTCRCDKPRR
modifications: radio-iodinated (125I) using IODO-BEADS in the binding and cross-linking experiments
notes: mature
Turning to B1, the “stimulation of 231 breast carcinoma cell motility, Boyden chamber, VEGF165 50 ng/ml” value in test [1] turned out to be 2 fold. In addition, in test [2], the Kd (as a rule, the concentration at which binding is half-saturated) is ~0.32 nM. The binding result in test [3] and in test [4] was “binds” in each case.

B2: Human recombinant VEGF121 (ligand, UniProt P15692-9 27-147, looked up)
chain: APMAEGGGQNHHEVVKFMDVYQRSYCHPIETLVDIFQEYPDEIEYIFKPSCVPLMRCGGCCNDEGLECVPTEESNITMQIMRIKPHQGQHIGEMSFLQHNKCECRPKKDRARQEKCDKPRR
modifications: radio-iodinated (125I) using IODO-BEADS in the cross-linking experiments
notes: mature
Turning to B2, the binding result in test [5] was “no binding (tested: 10 ng/ml)”.

B3: Recombinant chick collapsin-1 (semaphorin III) (ligand, UniProt Q90607 23-772, looked up)
chain: QHVKNNVPRLKLSYKEMLESNNIVNFNGLANSSSYHTFLLDEERSRLYVGAKDHIFSFNLVNIKEYQKIVWPVSHSRRDECKWAGKDILRECANFIKVLKTYNQTHLYACGTGAFHPMCTYIEVGSHPEDNIFRMEDSHFENGRGKSPYDPKLLTASLLVDGELYSGTAADFMGRDFAIFRTLGHHHPIRTEQHDSRWLNDPRFISAHLIPESDNPEDDKIYFFFRENAIDGEHTGKATHARIGQICKNDFGGHRSLVNKWTTFLKARLICSVPGPNGIDTHFDELQDVFLMNSKDPKNPIVYGVFTTSSNIFKGSAVCMYSMTDVRRVFLGPYAHRDGPNYQWVPYQGRVPYPRPGTCPSKTFGGFDSTKDLPDEVITFARSHPAMYNPVFPINSRPIMIKTDVDYQFTQIVVDRVDAEDGQYDVMFIGTDIGTVLKVVSIPKETWHELEEVLLEEMTVFREPTVISAMKISTKQQQLYIGSATGVSQLPLHRCDVYGKACAECCLARDPYCAWDGSSCSRYFPTAKRRTRRQDIRNGDPLTHCSDLQHHDNPSGQTLEEKIIYGVENSSTFLECSPKSQRAIVYWQFQKQNDDHKVEIKVDDRMIRTEQGLLLRSLQRRDSGIYFCHAVEHGFIQTLLKVTLEVIDTDHLEELLHKEEDADASKTKDATNSMTPSQKIWYRDFMQLINHPNLNTMDEFCEQVWKRDRKQRRQRPANAQVNTNKWKHLQENKKGRNRRTHEFERAPRSV
modifications: 125I-labelled in the binding studies
With B3, the binding result in the test with KDR is “no binding”.
